Test results as given in the DeepSol protein solubility set.

Test: soluble on expression in E. coli; label from the status in PepcDB or PDB records

Sequence	soluble on expression in E. coli
MSIRNSASRDDTSASVEDSILDAARSCILDFGLRRTTLAEVARRAGVSRPTVYRRWSDTRAVVADLMTREIAAVMPEFSVEESVHRQLVDAVVHVSTEVRDHPLFVKILRSDQELFTTYILERLGTSQRAIIDQVAFAVSTGQDQGSIRAGDSRHIATMVLLIAQSAVQSAVMVAEELPGDALTEQLRHAVGAYLAPDVAVTHPTDRGDR	not soluble
MASKHAAKTVDPKDLSPAWKVLQMKLNEEKAEKEKAAKAEKEANPEGSDDGFTKVQTKKQKQKMNRKRRAQEALAAASEVKRVHHDIPVVIEDSERGELTKVIAIDCEYVGAGMGGTTDILARISIVNELGKIVYDKFVKPTEKVTDFRTAVSGIRPENMIKAIPFDRAQTEVSKLIDGRIVIGHAVHNDFRVLKLNHIRKLTRDTAKCTILKNMANHHGTPSLKKLAKEVLGIEIQRGEHDSITDARVALRLYEAVKKQWEAEIKRYR	not soluble
MQEDDSVKPFQTVGAHRDLIHCVSFDPHGRRMATCASDMTMAIWDRKPDGNWRRSAHWKCHGGAVWRVIWAHPEFGQIVATCSYDRTIVIWEEQIVRSEKDLKQKESQWIRRTIISDNRSDVTDICFSPRHLGLMMASCNVLGTVRIYEAPDIVDASRWNLIHELQAFHTRCGCVTWSLSRMHRPLIAVGSDEKKAENKKRVVIYENIDGLRKWQRINSLVFDLPCPITDLKFSPISMVDSHQLAVASGDVHVYNIKVARSAILEEDGVENPIQLADYNLIKVALLGDHRKAWRLRYNLMGSVISSTSLDGTLRSWKSLFVNQWVKLSEMNVDDYVPSPEEVRAFISSKTTERLPSQLEKTYF	not soluble
MIYSMTAFAHLELKKEWGNAVWEMRSVNQRFLETYFRLPEQFRHLEMSLRERLRSALTRGKVECSLRIELTNSQDKELSLNKDYAEKVIGSLQTLQALAGGGQINLVDLLRYPGVVDSQTQDLDQIGQDLCAGFEEILADFIAMRAREGANLQQLIQQRLDSISKIATQVQAQMPAILQWQKEKLQQRFDELNLQLESQRLEQEIVLTAQRVDVAEELDRLQLHVKETMAILQRGGAVGRKLDFMMQELNRESNTLASKSINADVTNSAVELKVLIEQMREQIQNLE	not soluble
GSTVPYTITVNGTSQNILSNLTFNKNQNISYKDLEGKVKSVLESNRGITDVDLRLSKQAKYTVNFKNGTKKVIDLKSGIYTANLINSSDIKSININID	soluble
MGSDKIHHHHHHMKIKVKLPDGKEKEYDRGITPAEIAKELGIKKAIGAVVNGELWDLKRPIENDCELRLVTLEDPEAPEFYRHTMAHILAQAVMRLYGKENVKLGIGPTIENGFYYDFDIKNGRLTEEDLPKIEQEMKKIIKENLPIERKEISKEEARELFRDQPYKLELIEEIEGNRVTIYRQGEFVDLCRGPHLPSTGIVKHFKLLSVSGAYWRGSEKNPMLTRVYGTAFAKKEDLDNYLKFLEEAQRRDHRKLGPQLELFMLNTEYAPGMPFFLPKGVVVLNELMKFSRELHRERGYQEIFTPLIMNEQLWKISGHWDHYAENMYFIEKDEERYAVKPMNCPGHILVYKSRTVSYRDLPLRFFEFGRVHRYERSGVLHGLMRVRSFTQDDAHIFCTPDQIEEEILGVLDLINTIYSQFGFTYRVELSTMPEDHMGDEAIWEKATTALKNALERAGLSYKVNEGEGAFYGPKIDFHIRDSIGREWQCATIQLDFMMPEKFNVTYIGPDNKEHRAVMIHRAIYGSLERFFGILIEHFAGAFPTWLAPIQVAVIPISEKHNDGAEKVARRISQEGFRVFFDNRRETLGYRIRQAQTQKIPYMIIIGDKELESGKISVRTRTGKEIKDVDPEHFVETLRNEVLSRKLELSMEG	not soluble
MAHHHHHHMVLITSNCARVAAFTRKAACSGALCDRHRCISGGGRGDLFTRHAGAFKPPAFGVLRGLTHSSQTTHPQTGQLQARKRIQHAMHDRTLSGSGHHRTAVATWSYLLHSLRQNVEQAVPDALYEKLLTDEVPLTPAESRQLADAHRLLRFELQKRIGLLEDSLADAALPYLLQWPALFQRAWLRLPMDQGRASVTEANHDAVVPAPPSFVHAPAALPVTEWAPTLSPASPPACSNGLIGRGALVPRLAQLTRHVIRCVEEDLGRLEHVSEPREDGVPRSRRQVALEAAWRAQWASLLTWHAGVSYGMG	soluble
MGSDKIHHHHHHMTEITTLTQFLSTANTQFQVYDLGRRVQHIDMMAFSQIEALQAPYPSPIQGHAQFAIVFWDDSNQHFIWFLKLPLDERGLLSPAPRTQFIRMVIEALGSDPTQALSQDQQDTLANHPFAFKPSAEKLALFNALVRKQLGLPASAQYEFAYQYLSGQVSPERWQDVGLQGLADICVRAAALDHNEQLLNALEHSADEVKIALCQQLEHITLDAPLAERLLSAFYQGSPEQKLYYLRALASAPALAQQAIQYLDEQDALDDNALITIAGRNWTALKDDQTRKIYLEALAKQPQGFFNQIFADIVAIPAIRTQLLMALRDSERSQALANAIGGLFRVTKA	not soluble
MGQNIELHESLIRLIPYGEVPLPTVEQVQEHIYSYLNYLSESAIEQDVLFRVLLSTEERETLARAALGLTLEEISDFLRLTVKERLSSNGITIDATVTPMVVEYKTRLLSQMGIELGKPALYSFGGLDLLREWLNRRRKLFTQEARNLQLPQPKGILLEHHHHHH	not soluble
MSRGDKMLKFEIKARDGAGRIGKLEVNGKKIETPAIMPVVNPKQMVVEPKELEKMGFEIIITNSYIIYKDEELRRKALELGIHRMLDYNGIIEVDSGSFQLMKYGSIEVSNREIIEFQHRIGVDIGTFLDIPTPPDAPREQAVKELEITLSRAREAEEIKEIPMNATIQGSTYTDLRRYAARRLSSMNFEIHPIGGVVPLLESYRFRDVVDIVISSKMALRPDRPVHLFGAGHPIVFALAVAMGVDLFDSASYALYAKDDRYMTPEGTKRLDELDYFPCSCPVCSKYTPQELREMPKEERTRLLALHNLWVIKEEIKRVKQAIKEGELWRLVDERARSHPKLYSAYKRLLEHYTFLEEFEPITKKSALFKISNESLRWPVVRRAKERAKSINERFGELVEHPIFGRVSRYLSLTYPFAQSEAEDDFKIEKPTKEDAIKYVMAIAEYQFGEGASRAFDDAKVELSKTGMPRQVKVNGKRLATVRADDGLLTLGIEGAKRLHRVLPYPRMRVVVNKEAEPFARKGKDVFAKFVIFADPGIRPYDEVLVVNENDELLATGQALLSGREMIVFQYGRAVKVRKGVE	soluble
MGSDKIHHHHHHMHIKILKNRYPNIVVSKNPIKSSSDTISFFEEPYYFTIPKSNLSEEEAMLLHTLFPEPLPTFPKESTQFWFDLLFGNKELAMTNEKETYRITQFHIKTTTTKSMLQEWQKALLSFFSPEAELIMFSTNYGVIIEKSTGSLLGEEELIAVAGTLENDFYIQSTFFMGLFHPLNDRLRGLFAEERAIFNHNNREVVQTVASESLKVIALRMKESLITNELNDLFHQDDTWIPLIHTLFKNQGNISLTAKELFMHRNTIQYRLDKFYEQTNLSLRKMDGLLLAYLSTLQTNNSNHE	not soluble
MGSDKIHHHHHHMKAGTQKTLTHSDLVEQGVRFLLASYVDLHGVPKAKAVPISHFDRMMNGSEMFTGAALDGVPQEISDEEVAAHPDMGSAIVLPWSKDIAWLPSDLYTQGEPFNACSRTILKKVRQQAAELGMAMQLGIEAEFFVLKDQEAGGFSPISTRHHLKKPAYDVARLLDNKPWLSELVEAMDSLDWGVYSFDHEDGIGQFEIDFSYFEVLRMADNFTFLRMMANEIARKHGGFASFMPKPYGDRAGSGAHFNISLTDINTGLNLFEPEQDDPRGCGLSTLGYQFIAGVLRHLPAICAVVAPTVNSYKRLVKQGSMSGFTWAPVFCCYGNNNRTNTIRIPLGGKRIEIRAVDSACNPYLGAAMILAAGLEGIRENLDPGDPHLDNMYEKTPEELASLGIRELPKTLEEAIDAFEADPLSRQVFGDQMFSAWTQYKREEWLSYITHVSDWEYDRYLKLF	not soluble
MKKWRFLGIDDSFDDRKCCVVGCVTCGGYVEGFLYTEIDIDGLDATDKLISMVRRSKFREQIKCIFLPGITLGGFNLVDIQRVYRETKIPVVVVMRRKPDMEEFDSAMRNLENYELRRKIVEVAGEIHRIGDIYIQTAGLTPSEAEKLVKASLIKGNMPEPVRISHLVASAIIHGESRGKA	soluble
GMWWYSSIKYSADKVLLDTTRMYYYFINRTPRMEIGRMIAVLSGSFEFSKQYNKEIQERETDDYEVPRLMKQIAGVNDKGKEQPLSQPYALKSRVLLHAYLSRLPLESQNDALEEDQSYIITRILRFVEEMVNCSQNLMNYSQHTKISIETFDNLLKLQPMFVQALWQKNSPLLQLPHITDYNLQHLRKKRVFSCHDLAVMDAETRRSVLRSLSNEEYRDVMVVLSMMPRLQIETKTVVEGEDDKHELTAGCVVTLKVTMRRSRLIDPQEAGLADQYKKYAEDGGDDELEASEAPEEAAATVEEEEVKKRKPWEKNKPKQKKKKAQGQGQKKFVKKNAPASPDTEKALKEE	not soluble
MGSDKIHHHHHHMRSFTQSSKPIFKDHIVQQSSLVANNYRFIGPRLIDNTPVLFGSFSVVQLNPHLILHTADVINRHNMKTQNLLDSAIKLAIVVSGNAHISFGHQELHLGESQPASLIALTEPTMFTRIGKRDEYERTITLTFDREWLYGNMMDTVGDWQAIHDFTQTHLATHLWTPSRQARAIALQTLDANPCQTPLQRLYLETQCMSLIIEAFTSLTASVAQEKSSGVTLRGYHRIQQIRDMLESGSADHLSMSEIAKSVNMSESTLQRHFRQTFNMSVFEYLRNCRLQRAMLALQKDGIGIAQAASIAGYNSPANFATALRRAFGITPGQLKDRF	not soluble
MPFPSRSLRATLCSAPVRMPDAAQKNAATPPPPLALSKPSPSPWAALLTPSSLSFPCSPSLPTYRRTRTAMHGSPPARGLQRRIKVPLMASAPSSIAFDIAAPTAAAWIARWMPVASPRRCSPLLRLCGDYPRCAVAAALSCQRLWIRSTSPLACSTAAGQTRSTPKMTKRPRRGIRRPSRAAGRLGSDTEEAENAALCQRHPEEHAGIFQSQHIKPFPVRAAIDIGTGGVVSLCVARVDATVGAIQKLMYQTQLPLHLEALPTSMSSPSSPLSASSSSFTLSERTMEDITNKVHILQGAMRRNAFEGLSERAAVLSWPLCLARNAGQLAERLTKEFKVDVRVLGADFDVEWPPSVARFLAGEGASTPETADDSRSTVDKGTRDSVTRKGAENTLKSLLCAARAPTTSGLARHKRKVTAPPSSGSASSRGAMDARTQLDTLAFLAHAAVSQCVAPQRLLVLHEDPQRGLRLLGLGTSAADDIADLLDDATTPEERQSLYAIAHGPGPSLLEAGERTPSSGKQVFVAAHAQSRQQASLLPTLSSMRDCQGSADDGTSSDAAPAAASLMRLVEHPLPVDVASAHRYCITQIQRRPLESYGLHASSPNPLLADEFAALRGLLVGMIQPTLPAWVRRKAQLGGVLCGTSHNGGLLNLAARVSQQTHVSLEHLEVHAQYHFCGLTDVLLAESFPNPFLVLPSVALTAAVLRSLESPRITYLPEVSVAAALLVQPSLWLHARATEVRARLARDPFYASTTAAQRGRMFGRPHRKDNPTAAPDATWVKEGRWNPISFSESMRGT	not soluble
MIPLLGIISLSLNISGPKYRLEMGLGGKVAVDSTFSNEGVQKATEPNGTKVTYYYGGESKGFIEFSSDWKLKINEKCDINFGPRIKLLNISHIAKNIFFFLGITAGAGFEFNYNIRENVKFYTGIDGLIGMGTFMNLNNSSSKDTESKKISVIYDFIPESNVTVGTKINDKYNVGLFVDILQGYFGLKAGYTF	not soluble
